# Data published in patent US8840891 (RSR, dated 2014).
# Like-named read-outs stand apart in the source and are kept apart here.
# B1: 5C9 IgG (human monoclonal autoantibody to the TSHR) (antibody, from another filing, V domains shown)
# VH: EVQLVESGGGLIQPGGSLRLSCAASGFTVSSNYMSWVRQAPGKGLEWVSVTYSGGSTSYADSVKGRFTISRDNSKNTLYLQMNSLRAEDTAVYYCARGGRYCSSISCYARSGCDYWGQGTLVTVSS
# VL: AIQMTQSPSSLSASVGDRVTITCRASQSISNYLNWYQQKPGKAPKLLIYAASSLQSGVPSRFSGSGSGTDFTLTISSLQPEDFATYYCQQSYSSPSTTFGQGTKLEIK
# What was measured:
# [1] = molecular target: wild type human TSHR (human) (UniProt P16473); assay: cell-based or functional assay
# [2] = molecular target: TSHR with Arg80 mutated to Aspartic acid (human) (UniProt P16473); assay: cell-based or functional assay
# [3] = molecular target: wild type human TSHR (human) (UniProt P16473); assay: cell-based or functional assay; remark: listed apart in the source
# [4] = molecular target: TSHR with Asp151 mutated to Alanine (human) (UniProt P16473); assay: cell-based or functional assay
# [5] = molecular target: TSHR coated onto tubes (human) (UniProt P16473); assay: TSHR coated tubes, competitor 125I-5C9 IgG
# [6] = molecular target: wild type human TSHR (human) (UniProt P16473); assay: cell-based or functional assay; remark: listed apart in the source
# [7] = molecular target: TSHR with Lys183 mutated to Alanine (human) (UniProt P16473); assay: cell-based or functional assay
# [8] = molecular target: wild type human TSHR (human) (UniProt P16473); assay: cell-based or functional assay; remark: listed apart in the source
# [9] = molecular target: TSHR with Tyr82 mutated to Alanine (human) (UniProt P16473); assay: cell-based or functional assay
# [10] = molecular target: wild type human TSHR (human) (UniProt P16473); assay: cell-based or functional assay; remark: listed apart in the source
# [11] = molecular target: TSHR with Trp258 mutated to Alanine (human) (UniProt P16473); assay: cell-based or functional assay
# [12] = molecular target: wild type human TSHR (human) (UniProt P16473); assay: cell-based or functional assay; remark: listed apart in the source
# [13] = molecular target: TSHR with Thr104 mutated to Alanine (human) (UniProt P16473); assay: cell-based or functional assay
# [14] = molecular target: wild type human TSHR (human) (UniProt P16473); assay: cell-based or functional assay; remark: listed apart in the source
# [15] = molecular target: TSHR with Arg80 mutated to Alanine (human) (UniProt P16473); assay: cell-based or functional assay
# [16] = molecular target: TSHR coated onto tubes (TSHR coated tubes) (human) (UniProt P16473); assay: TSHR coated tubes, in presence of HBD pool
# [17] = molecular target: TSHR coated onto tubes (TSHR coated tubes) (human) (UniProt P16473); assay: TSHR coated tubes
# [18] = molecular target: TSHR coated onto tubes (TSHR coated tubes) (human) (UniProt P16473); assay: Scatchard analysis, 125I-5C9 IgG and unlabelled 5C9 IgG in TSHR coated tubes
molecule,measurement,setting,value
5C9 IgG (antibody),cyclic AMP; 5C9 0.01 µg/mL + TSH (fmol/cell well),[1],13100
same,cyclic AMP; 5C9 0.1 µg/mL + TSH (fmol/cell well),[1],6330
same,cyclic AMP; 5C9 1.0 µg/mL + TSH (fmol/cell well),[1],2640
same,cyclic AMP; 5C9 10 µg/mL + TSH (fmol/cell well),[1],1910
same,cyclic AMP; 5C9 100 µg/mL + TSH (fmol/cell well),[1],1610
same,cyclic AMP; 5C9 100 µg/mL only (fmol/cell well),[1],300
same,Mutated/wild type (%); 5C9 0.01 µg/mL + TSH,[2],161%
same,Mutated/wild type (%); 5C9 0.1 µg/mL + TSH,[2],70%
same,Mutated/wild type (%); 5C9 1.0 µg/mL + TSH,[2],73%
same,Mutated/wild type (%); 5C9 10 µg/mL + TSH,[2],66%
same,Mutated/wild type (%); 5C9 100 µg/mL + TSH,[2],79%
same,Mutated/wild type (%); 5C9 100 µg/mL only,[2],174%
same,cyclic AMP; 5C9 0.01 µg/mL + TSH (fmol/cell well),[2],21000
same,cyclic AMP; 5C9 0.1 µg/mL + TSH (fmol/cell well),[2],4420
same,cyclic AMP; 5C9 1.0 µg/mL + TSH (fmol/cell well),[2],1910
same,cyclic AMP; 5C9 10 µg/mL + TSH (fmol/cell well),[2],1250
same,cyclic AMP; 5C9 100 µg/mL + TSH (fmol/cell well),[2],1270
same,cyclic AMP; 5C9 100 µg/mL only (fmol/cell well),[2],523
same,cyclic AMP; 5C9 0.01 µg/mL + TSH (fmol/cell well),[3],11200
same,cyclic AMP; 5C9 0.1 µg/mL + TSH (fmol/cell well),[3],6950
same,cyclic AMP; 5C9 1.0 µg/mL + TSH (fmol/cell well),[3],1390
same,cyclic AMP; 5C9 10 µg/mL + TSH (fmol/cell well),[3],380
same,cyclic AMP; 5C9 100 µg/mL + TSH (fmol/cell well),[3],945
same,cyclic AMP; 5C9 100 µg/mL only (fmol/cell well),[3],176
same,Mutated/wild type (%); 5C9 0.01 µg/mL + TSH,[4],112%
same,Mutated/wild type (%); 5C9 0.1 µg/mL + TSH,[4],143%
same,Mutated/wild type (%); 5C9 1.0 µg/mL + TSH,[4],465%
same,Mutated/wild type (%); 5C9 10 µg/mL + TSH,[4],599%
same,Mutated/wild type (%); 5C9 100 µg/mL + TSH,[4],162%
same,Mutated/wild type (%); 5C9 100 µg/mL only,[4],224%
same,cyclic AMP; 5C9 0.01 µg/mL + TSH (fmol/cell well),[4],12600
same,cyclic AMP; 5C9 0.1 µg/mL + TSH (fmol/cell well),[4],9960
same,cyclic AMP; 5C9 1.0 µg/mL + TSH (fmol/cell well),[4],6450
same,cyclic AMP; 5C9 10 µg/mL + TSH (fmol/cell well),[4],2280
same,cyclic AMP; 5C9 100 µg/mL + TSH (fmol/cell well),[4],1540
same,cyclic AMP; 5C9 100 µg/mL only (fmol/cell well),[4],395
same,% inhib of 125I-5C9 IgG binding at 0.01 µg/mL,[5],0%
same,% inhib of 125I-5C9 IgG binding at 0.1 µg/mL,[5],10%
same,% inhib of 125I-5C9 IgG binding at 1 µg/mL,[5],27%
same,% inhib of 125I-5C9 IgG binding at 10 µg/mL,[5],42%
same,% inhib of 125I-5C9 IgG binding at 100 µg/mL,[5],65.5%
same,cyclic AMP; 5C9 0.01 µg/mL + TSH (fmol/cell well),[6],18000
same,cyclic AMP; 5C9 0.1 µg/mL + TSH (fmol/cell well),[6],11500
same,cyclic AMP; 5C9 1.0 µg/mL + TSH (fmol/cell well),[6],3490
same,cyclic AMP; 5C9 10 µg/mL + TSH (fmol/cell well),[6],1230
same,cyclic AMP; 5C9 100 µg/mL + TSH (fmol/cell well),[6],1460
same,cyclic AMP; 5C9 100 µg/mL only (fmol/cell well),[6],384
same,Mutated/wild type (%); 5C9 0.01 µg/mL + TSH,[7],130%
same,Mutated/wild type (%); 5C9 0.1 µg/mL + TSH,[7],211%
same,Mutated/wild type (%); 5C9 1.0 µg/mL + TSH,[7],418%
same,Mutated/wild type (%); 5C9 10 µg/mL + TSH,[7],618%
same,Mutated/wild type (%); 5C9 100 µg/mL + TSH,[7],786%
same,Mutated/wild type (%); 5C9 100 µg/mL only,[7],195%
same,cyclic AMP; 5C9 0.01 µg/mL + TSH (fmol/cell well),[7],23300
same,cyclic AMP; 5C9 0.1 µg/mL + TSH (fmol/cell well),[7],24300
same,cyclic AMP; 5C9 1.0 µg/mL + TSH (fmol/cell well),[7],14600
same,cyclic AMP; 5C9 10 µg/mL + TSH (fmol/cell well),[7],7570
same,cyclic AMP; 5C9 100 µg/mL + TSH (fmol/cell well),[7],11400
same,cyclic AMP; 5C9 100 µg/mL only (fmol/cell well),[7],747
same,cyclic AMP; 5C9 0.01 µg/mL + TSH (fmol/cell well),[8],13900
same,cyclic AMP; 5C9 0.1 µg/mL + TSH (fmol/cell well),[8],6250
same,cyclic AMP; 5C9 1.0 µg/mL + TSH (fmol/cell well),[8],1600
same,cyclic AMP; 5C9 10 µg/mL + TSH (fmol/cell well),[8],822
same,cyclic AMP; 5C9 100 µg/mL + TSH (fmol/cell well),[8],978
same,cyclic AMP; 5C9 100 µg/mL only (fmol/cell well),[8],289
same,Mutated/wild type (%); 5C9 0.01 µg/mL + TSH,[9],113%
same,Mutated/wild type (%); 5C9 0.1 µg/mL + TSH,[9],203%
same,Mutated/wild type (%); 5C9 1.0 µg/mL + TSH,[9],185%
same,Mutated/wild type (%); 5C9 10 µg/mL + TSH,[9],200%
same,Mutated/wild type (%); 5C9 100 µg/mL + TSH,[9],105%
same,Mutated/wild type (%); 5C9 100 µg/mL only,[9],494%
same,cyclic AMP; 5C9 0.01 µg/mL + TSH (fmol/cell well),[9],15700
same,cyclic AMP; 5C9 0.1 µg/mL + TSH (fmol/cell well),[9],12700
same,cyclic AMP; 5C9 1.0 µg/mL + TSH (fmol/cell well),[9],2960
same,cyclic AMP; 5C9 10 µg/mL + TSH (fmol/cell well),[9],1650
same,cyclic AMP; 5C9 100 µg/mL + TSH (fmol/cell well),[9],1030
same,cyclic AMP; 5C9 100 µg/mL only (fmol/cell well),[9],1430
same,cyclic AMP; 5C9 0.01 µg/mL + TSH (fmol/cell well),[10],19500
same,cyclic AMP; 5C9 0.1 µg/mL + TSH (fmol/cell well),[10],10500
same,cyclic AMP; 5C9 1.0 µg/mL + TSH (fmol/cell well),[10],2620
same,cyclic AMP; 5C9 10 µg/mL + TSH (fmol/cell well),[10],1190
same,cyclic AMP; 5C9 100 µg/mL + TSH (fmol/cell well),[10],1320
same,cyclic AMP; 5C9 100 µg/mL only (fmol/cell well),[10],211
same,Mutated/wild type (%); 5C9 0.01 µg/mL + TSH,[11],34%
same,Mutated/wild type (%); 5C9 0.1 µg/mL + TSH,[11],19%
same,Mutated/wild type (%); 5C9 1.0 µg/mL + TSH,[11],43%
same,Mutated/wild type (%); 5C9 10 µg/mL + TSH,[11],30%
same,Mutated/wild type (%); 5C9 100 µg/mL + TSH,[11],37%
same,Mutated/wild type (%); 5C9 100 µg/mL only,[11],200%
same,cyclic AMP; 5C9 0.01 µg/mL + TSH (fmol/cell well),[11],6620
same,cyclic AMP; 5C9 0.1 µg/mL + TSH (fmol/cell well),[11],1940
same,cyclic AMP; 5C9 1.0 µg/mL + TSH (fmol/cell well),[11],1130
same,cyclic AMP; 5C9 10 µg/mL + TSH (fmol/cell well),[11],357
same,cyclic AMP; 5C9 100 µg/mL + TSH (fmol/cell well),[11],484
same,cyclic AMP; 5C9 100 µg/mL only (fmol/cell well),[11],423
same,cyclic AMP; 5C9 0.01 µg/mL + TSH (fmol/cell well),[12],12300
same,cyclic AMP; 5C9 1.0 µg/mL + TSH (fmol/cell well),[12],3700
same,cyclic AMP; 5C9 10 µg/mL + TSH (fmol/cell well),[12],1800
same,cyclic AMP; 5C9 100 µg/mL + TSH (fmol/cell well),[12],2220
same,cyclic AMP; 5C9 100 µg/mL only (fmol/cell well),[12],195
same,Mutated/wild type (%); 5C9 0.01 µg/mL + TSH,[13],95%
same,Mutated/wild type (%); 5C9 0.1 µg/mL + TSH,[13],134%
same,Mutated/wild type (%); 5C9 1.0 µg/mL + TSH,[13],168%
same,Mutated/wild type (%); 5C9 10 µg/mL + TSH,[13],172%
same,Mutated/wild type (%); 5C9 100 µg/mL + TSH,[13],140%
same,Mutated/wild type (%); 5C9 100 µg/mL only,[13],135%
same,cyclic AMP; 5C9 0.01 µg/mL + TSH (fmol/cell well),[13],11700
same,cyclic AMP; 5C9 0.1 µg/mL + TSH (fmol/cell well),[13],9510
same,cyclic AMP; 5C9 1.0 µg/mL + TSH (fmol/cell well),[13],6200
same,cyclic AMP; 5C9 10 µg/mL + TSH (fmol/cell well),[13],3090
same,cyclic AMP; 5C9 100 µg/mL + TSH (fmol/cell well),[13],3110
same,cyclic AMP; 5C9 100 µg/mL only (fmol/cell well),[13],264
same,cyclic AMP; 5C9 0.01 µg/mL + TSH (fmol/cell well),[14],14400
same,cyclic AMP; 5C9 0.1 µg/mL + TSH (fmol/cell well),[14],11300
same,cyclic AMP; 5C9 1.0 µg/mL + TSH (fmol/cell well),[14],6700
same,cyclic AMP; 5C9 10 µg/mL + TSH (fmol/cell well),[14],2110
same,cyclic AMP; 5C9 100 µg/mL + TSH (fmol/cell well),[14],2230
same,cyclic AMP; 5C9 100 µg/mL only (fmol/cell well),[14],244
same,Mutated/wild type (%); 5C9 0.01 µg/mL + TSH,[15],99%
same,Mutated/wild type (%); 5C9 0.1 µg/mL + TSH,[15],82%
same,Mutated/wild type (%); 5C9 1.0 µg/mL + TSH,[15],20%
same,Mutated/wild type (%); 5C9 10 µg/mL + TSH,[15],55%
same,Mutated/wild type (%); 5C9 100 µg/mL + TSH,[15],23%
same,Mutated/wild type (%); 5C9 100 µg/mL only,[15],202%
same,cyclic AMP; 5C9 0.01 µg/mL + TSH (fmol/cell well),[15],14300
same,cyclic AMP; 5C9 0.1 µg/mL + TSH (fmol/cell well),[15],9280
same,cyclic AMP; 5C9 1.0 µg/mL + TSH (fmol/cell well),[15],1360
same,cyclic AMP; 5C9 10 µg/mL + TSH (fmol/cell well),[15],1160
same,cyclic AMP; 5C9 100 µg/mL + TSH (fmol/cell well),[15],518
same,cyclic AMP; 5C9 100 µg/mL only (fmol/cell well),[15],494
B1,% binding of labelled tracer,[16],20%
same,average % binding of labelled tracer,[17],20%
same,Ka,[18],4e+10 M⁻¹
